According to paper PMC8659191, “Expressed Soybean Leghemoglobin: Effect on Escherichia coli at Oxidative and Nitrosative Stress” (Molecules, 2021):

System: CC(C)(C)OO
Experiment: purified protein
Conditions: pH 7.4; 25.0 °C

Lba (soybean leghemoglobin a, recombinant, ferric metLb) (Glycine max)
Km: 5.4 ± 0.05 mM
